Starred links: 1 amine or outer side, 2 acyl side, 3 side chain; linkers in the order of their positions; H or OH if unused. Positions of bridges follow the written chain, without caps; N, C: chain ends. No end group written: not given here. TBMB = c1c(C[*:1])cc(C[*:3])cc1C[*:2]
T1: fibroblast activation protein α (FAPα) (UniProt Q12884 26-760, limits assumed)
T1 sequence (looked up): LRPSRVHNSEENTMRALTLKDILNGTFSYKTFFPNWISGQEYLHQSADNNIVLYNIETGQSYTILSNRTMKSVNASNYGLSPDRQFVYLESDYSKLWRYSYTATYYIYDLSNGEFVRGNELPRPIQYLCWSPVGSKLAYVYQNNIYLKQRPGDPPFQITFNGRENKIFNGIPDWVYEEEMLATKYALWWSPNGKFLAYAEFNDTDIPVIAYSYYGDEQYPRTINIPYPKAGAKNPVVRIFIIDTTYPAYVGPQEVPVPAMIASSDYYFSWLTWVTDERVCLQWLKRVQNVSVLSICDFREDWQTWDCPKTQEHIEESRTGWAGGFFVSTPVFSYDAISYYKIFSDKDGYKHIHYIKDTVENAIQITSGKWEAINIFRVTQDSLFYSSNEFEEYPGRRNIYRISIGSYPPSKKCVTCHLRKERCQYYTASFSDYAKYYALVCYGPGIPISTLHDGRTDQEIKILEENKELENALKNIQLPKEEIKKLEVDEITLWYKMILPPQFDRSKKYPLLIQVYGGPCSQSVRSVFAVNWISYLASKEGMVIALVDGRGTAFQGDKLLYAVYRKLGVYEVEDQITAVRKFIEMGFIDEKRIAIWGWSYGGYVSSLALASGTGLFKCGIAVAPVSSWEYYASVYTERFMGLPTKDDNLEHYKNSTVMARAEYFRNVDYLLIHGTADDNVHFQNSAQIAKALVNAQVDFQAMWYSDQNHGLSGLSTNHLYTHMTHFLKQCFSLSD


Columns and labels:
[1] = biological target: T1, fibroblast activation protein α (FAPα); assay: fluorescence polarization FAPα binding assay
Procedure: FAPα binding was measured using the fluorescence polarization assay methodology described in Yanagisawa et al (1997) J Biol Chem 272(13), 8539-8545. FAPα enzyme inhibition was measured using the assay methodology described in Poplawski et al (2013) J Med Chem 56(9), 3467-3477.

[2] = biological target: T1, fibroblast activation protein α (FAPα); assay: cell-based or functional assay

Ki [1] [nM] | FAPα Enzyme Inhibition IC50 [2] [nM] | Binder
4520 | > 50000 | ACTDCDTDSLIYCA (linker 2-5-13 via TBMB, all L-amino acids) [A-(SEQ ID NO: 2)-A]
578 | 5760 | ACPPTEYDCLIFFSECA (linker 2-9-16 via TBMB, all L-amino acids; also called CiPPTEYDCiiLIFFSECiii with N- and C-terminal Ala) [A-(SEQ ID NO: 3)-A]
1720 | 16700 | ACDDCLISMRDACA (linker 2-5-13 via TBMB, all L-amino acids) [A-(SEQ ID NO: 4)-A]
113 | 1330 | ACHSDYLICPYGDFFCA (linker 2-9-16 via TBMB, all L-amino acids; also called CiHSDYLICiiPYGDFFCiii with N- and C-terminal Ala) [A-(SEQ ID NO: 1)-A]

From patent US20220008545A1 (Bicycle, published 2022)
